# Data as given in patent US20220112292A1 (ALETA BIOTHERAPEUTICS, published 2022).
# B1: 1C6 (VHH)
# VHH: QVQLQESGGALVQAGGSLRLSCAASGLTFSNYAMGWFRQAPGKEREFVAAINWSGGTTDYATSVKGRFTISRDNAKNTVYLQLNSLKPEDTAVYYCAASYRLRITVVVTPDEYHYWGQGTLVTVSS
# notes: also called VHH clone 1C6
# B2: VHH clone 2H3 (VHH)
# VHH: QVQLQESGGGLVQAGGSLRLSCVASGSIRSINVMGWYRQAPGKQRELVAACASDGNTYYADSVKGRFTISRDNAEKTVYLQMNNLKPDDTAVYYCDANSRGNYYSGQGTQVTVSS
# notes: Includes myc and His tags; also called 2H3 VHH-Myc-His; VHH 2H3
# B3: VHH clone 1H1 (VHH)
# VHH: QVQLQESGGGLVQPGGSLRLSCAASGFTFNSYAMTWVRQAPGKGLEWVSDINSGGGSTNYADSVKGRFTISRDNAKNTLYLQMNSLKPEDTAVYYCATELRGSDYYRGPIREYAYWGQGTLVTVSS
# notes: includes myc and His tags; also called 2F4
# B4: VHH clone 2C2 (VHH)
# VHH: QVQLQQSGGGLVQAGGSLTLSCAATGRTIDNGAMAWFRQAPGKQRELVAAINWSGGATFYTDSVKYRFTISRDNVRHTLDLQMTSLKPEDTTIYFCASRRGVDLRRNSYEYDYWGRGTLVTVSS
# notes: Includes myc and His tags
# Experiments:
# CLL-1 on U937 cells [1] = molecular target: T1, CLL-1 on U937 cells (human, UniProt Q5QGZ9 1-265); assay: flow cytometry on U937 cells, a-cMyc then a-msIgG-PE
# T1 construct: whole, on cells; also called CLEC12A; Clec12A
# T1 sequence: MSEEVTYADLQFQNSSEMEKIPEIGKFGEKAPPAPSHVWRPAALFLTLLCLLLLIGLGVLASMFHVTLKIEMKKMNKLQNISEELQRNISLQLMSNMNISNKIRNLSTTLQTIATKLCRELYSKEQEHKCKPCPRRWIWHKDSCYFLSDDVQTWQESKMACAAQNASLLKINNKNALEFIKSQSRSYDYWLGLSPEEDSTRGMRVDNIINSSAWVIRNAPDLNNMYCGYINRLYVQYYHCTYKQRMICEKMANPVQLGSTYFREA
# Method: (§1) Additional VHH clones were assessed for binding to U937. […] Clones tested: 1A10: stock=0.9 mg/ml; 1B1: stock=0.9 mg/ml; […]: stock=1.5 mg/ml; 2C8: stock=0.9 mg/ml; 1D2: stock=0.06 mg/ml. Previous clone as control 2F5: stock=0.5 mg/ml.
# CLL-1 on U937 cells [2] = molecular target: T1, CLL-1 on U937 cells; assay: flow cytometry on U937 cells, clone at 3ug/ml, a-Myc then a-mIgG-PE; no clone 0.6% and 64,740.2, unstained 0.0% and 4,885.0
# Method: as §1
# CLL-1 on U937 cells [3] = molecular target: T1, CLL-1 on U937 cells; assay: flow cytometry on U937 cells, VHH in 3-fold dilutions, detected with a-His-PE; percent of cells positive
# Method: (§2) U937 cell binding by VHH clones was assessed using varying doses to determine EC50s. Briefly, the method included: VHH clones (3 ug/ml as starting conc./test, with 3× serial dilutions) in FACS buffer were added to Fc blocked U937 or 293T-CLL1 cells (2.5×10\hat{ }5), the mixtures were incubated for 30 min at 4° C., then washed twice with FACS buffer by spinning at 500G for 2 min; anti-His-PE was added to cells, the mixture was incubated for 30 min at 4° C. and washed twice with FACS buffer by spinning at 500G for 2 min; 1% PFA (Paraformaldehyde) in PBS was added to cell pellet to fix the cells, followed by FACS analysis. VHH clones tested: 1B5: stock=1.6 mg/ml; 1H1: stock=1.9 mg/ml; 1G6: stock=1.1 mg/ml; 2F3: stock=1.45 mg/ml; 2F5: stock=0.5 mg/ml; 2H3: stock=2 mg/ml.
# CLL-1 on U937 cells [4] = molecular target: T1, CLL-1 on U937 cells; assay: flow cytometry on U937 cells, VHH at 3 ug/ml, detected with a-His-PE; a-His-PE alone 1.1% and 5,576.5, unstained 0.6% and 5,793.5
# Method: U937 cell binding by VHH clones was assessed. Briefly, the method included: U937 cells (2.5×10\hat{ }5) were Fc blocked (human Fc block, BD Cat. #BDB564220) for 10 min at room temperature, then washed once with FACS buffer (PBS+1% BSA+0.1% Sodium Azide) by spinning at 500G for 2 min; VHH clones (3 μg/ml as final conc) in FACS buffer were added to the cell pellets and incubated for 30 min at 4° C., then washed twice with FACS buffer by spinning at 500G for 2 min; anti-His-PE (R&D Systems, Cat. #IC050P) was added to cells; the mixture was incubated for 30 min at 4° C. and washed twice with FACS buffer by spinning at 500G for 2 min; 1% PFA (Paraformaldehyde) in PBS was added to cell pellet to fix the cells, followed by FACS analysis. VHH clones tested: 1B5: stock=1.6 mg/ml; 1H1: stock=1.9 mg/ml; 1G6: stock=1.1 mg/ml; 2F3: stock=1.45 mg/ml; 2F5: stock=0.5 mg/ml; 2H3: stock=2 mg/ml. As shown in FIGS. 2A-2C, binding of clones 1H1, 1G6, 2F5 and 2H3 to U937 cells was detected with anti-His-PE; very little binding of clones 1B5 and 2F3 to U937 cells could be detected by anti-His-PE.
# [5] = molecular target: T2, Clec12A (ABclonal, RP01018) (human, UniProt Q5QGZ9-1 75-275, limits assumed); assay: ELISA: coated with clec12a, then 2H3, anti-myc, HRP-anti-mIgG; OD405
# T2 construct: Bought recombinant protein; also called ABclonal Clec12A; Clec12A from AbClonal
# T2 sequence: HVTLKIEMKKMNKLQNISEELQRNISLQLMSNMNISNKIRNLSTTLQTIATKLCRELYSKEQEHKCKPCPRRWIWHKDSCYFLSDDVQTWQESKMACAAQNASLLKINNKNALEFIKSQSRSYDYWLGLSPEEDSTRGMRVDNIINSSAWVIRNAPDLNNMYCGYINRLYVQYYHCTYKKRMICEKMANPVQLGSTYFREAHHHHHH
# Method: (§3) The ability of VHH clones to recognize commercially available recombinant Clec12a proteins was tested by ELISA. […] The plate was blocked with 200 μl/well 0.3% non-fat milk in Tris buffered saline (TBS) for 1 hr at room temperature (RT). Then, the plates were washed 3× with wash buffer (1×TBST: 0.1 M Tris, 0.5 M NaCl, 0.05% Tween 20). Next, 100 μl of the 2H3 VHH-Myc-His (SEQ ID NO: 15, purified by ProSci), was added starting at 5 μg/ml with 3 fold dilutions, and incubated for 1 h at RT. The plate was washed 3× with wash buffer and 100 μl of 1 ug/ml anti-Myc antibody (NOVUS/Fisher, NBP2-37822) was added per well. The plate was incubated for 1 h at RT and then washed 3× with wash buffer. Following the wash step, 100 μl of a 1:2000 dilution of HRP-anti-mIgG (Jackson ImmunoResearch, 115-035-062) was added per well and incubated at RT in the dark for 1 hr. […] This experiment was repeated twice.
# CLL-1 on U937 cells [6] = molecular target: T1, CLL-1 on U937 cells; assay: flow cytometry on U937 cells, clone lysate, anti-cMyc-PE (Table 3 summary)
# CLL-1 on U937 cells [7] = molecular target: T1, CLL-1 on U937 cells; assay: flow cytometry on U937 cells, % binding against ng/ml, detected with a-His-PE; EC50 of the fitted curve
# Method: as §2
# CLL-1 on U937 cells [8] = molecular target: T1, CLL-1 on U937 cells; assay: flow cytometry on U937 cells, 3x serial dilutions from 3 ug/ml, anti-His-PE
# Method: as §2
# [9] = molecular target: T3, Clec12A-His (Sino Biological, 11896-H07H) (human, UniProt Q5QGZ9 65-265); assay: ELISA, upper graph (first experiment): coated with clec12a, then 2H3, anti-myc, HRP-anti-mIgG; OD405
# T3 construct: Bought soluble protein; also called soluble CLEC12a-His; Sino Biological Clec12A
# T3 chain: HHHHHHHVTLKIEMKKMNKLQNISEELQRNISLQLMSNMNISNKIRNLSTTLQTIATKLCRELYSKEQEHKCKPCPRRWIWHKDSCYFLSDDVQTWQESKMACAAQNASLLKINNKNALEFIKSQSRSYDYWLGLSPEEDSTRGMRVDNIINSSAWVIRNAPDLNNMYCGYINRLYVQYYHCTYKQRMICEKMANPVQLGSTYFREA
# Method: as §3
# [10] = molecular target: T3, Clec12A-His (Sino Biological, …); assay: ELISA, lower graph (second experiment): coated with clec12a, then 2H3, anti-myc, HRP-anti-mIgG; OD405
# Method: as §3
# CLL-1 on U937 cells [11] = molecular target: T1, CLL-1 on U937 cells; assay: flow cytometry on U937 cells, % binding against ng/ml, detected with a-His-PE; EC50 of the fitted curve; the curve of 1H1 reaches about 70% at 3000 ng/ml without a plateau
# Method: as §2
# [12] = molecular target: T3, Clec12A-His (Sino Biological, …); assay: ELISA on plate coated with CLEC12a-His; unlabeled VHH at 10 ug/ml first, biotinylated VHH at 0.2 ug/ml second, streptavidin-HRP
# Method: (§4) ELISAs were used to determine if the VHH clones recognized distinct or similar epitopes. […] The plate was blocked with 0.3% nonfat milk in TBS (200 ul/well) for 1 hr at RT. The plates were washed 3× with 1×TBST (0.1 M Tris, 0.5 M NaCl and 0.05% Tween-20). The test anti-CLEC12a VHHs were added at 10 ug/ml horizontally across the plate, 100 ul per well and incubated for 1 h. Without washing, the test anti-CLEC12a biotinylated VHHs were added at 0.2 ug/ml vertically down the plate, 100 ul per well and incubate for 1 h. After being washed 3× with 1×TBST, HRP-conjugated streptavidin (Pierce #21130) at 1:2000 (100 ul/well) was added, followed by incubation at RT in the dark for 1 hr. For detection, 1-Step Ultra TMB-ELISA reagent (Thermo Fisher #34028) was added at 100 ul per well and read at 450 nm. […] The 1H1 VHH was distinct from these, and 2C2 was intermediate. Results are depicted in FIGS. 7A-7D.
# [13] = molecular target: T3, Clec12A-His (Sino Biological, …); assay: competition ELISA on coated CLEC12a-His, biotinylated VHH against unlabelled VHH
# Method: as §4
Binder,% binding at 1.4 ng/ml (CLL-1 on U937 cells [3]),% binding at 4.1 ng/ml (CLL-1 on U937 cells [3]),% binding at 12.3 ng/ml (CLL-1 on U937 cells [3]),% binding at 37.0 ng/ml (CLL-1 on U937 cells [3]),% binding at 111.1 ng/ml (CLL-1 on U937 cells [3]),% binding at 333.3 ng/ml (CLL-1 on U937 cells [3]),% binding at 1000 ng/ml (CLL-1 on U937 cells [3]),% binding at 3000 ng/ml (CLL-1 on U937 cells [3]),% of This Plot (R3 PE+) (CLL-1 on U937 cells [4]),Mean FL2-A (R3 gate) (CLL-1 on U937 cells [4]),% FACS positive (CLL-1 on U937 cells [6]),EC50 (CLL-1 on U937 cells [8]),other results
B1,–,–,–,–,–,–,–,–,–,–,–,–,binding result (CLL-1 on U937 cells [1]): no binding (tested: 3ug/ml); % of This Plot (R3) (CLL-1 on U937 cells [2]): 6%; Mean FL2-A (R3 gate) (CLL-1 on U937 cells [2]): 12300
B2,6.2%,33.5%,70.5%,89%,89.4%,89.9%,90.3%,88.7%,93.8%,8130,94.3%,0.35 nM,binding result [5]: no binding (tested: about 5000 ng/ml); EC50 (CLL-1 on U937 cells [7]): 0.00547 µg/mL; EC50 [9]: 0.0661 µg/mL; EC50 [10]: 0.0625 µg/mL
B3,0.6%,0.7%,0.7%,0.9%,2.1%,10.4%,35.7%,71%,88.6%,6730,10.8%,81 nM,EC50 (CLL-1 on U937 cells [11]): 1.37 µg/mL; binding result [12]: binds
B4,–,–,–,–,–,–,–,–,–,–,77.2%,–,binding result [13]: binds
